B1: S5-Pflu373: chimeric bacteriocin SEQ ID NO: 13: pyocin S5 first segment fused to P. fluorescens Pflu373 killing domain (protein)
chain: MSNDNEVPGSMVIVAQGPDDQYAYEVPPIDSAAVAGNMFGDLIQREIYLQKNIYYPVRSIFEQGTKEKKEINKKVSDQVDGLLKQITQGKREATRQERVDVMSAVLHKMESDLEGYKKTFTKGPFIDYEKQSSLSIYEAWVKIWEKNSWEERKKYPFQQLVRDELERAVAYYKQDSLSEAVKVLRQELNKQKALKEKEDLSQLERDYRTRKANLEMKVQSELDQAGSALPPLVSPTPEQWLERATRLVTQAIADKKQLQTTNNTLIKNSPTPLEKQKAIYNGELLVDEIASLQARLVKLNAETTRRRTEAEEQAKAEEEIKGAIKFTADFYKEIGEKYGAQMTASATDLAETAKGKTLRSAEEALKAFDQYKDHLDKKFSAADRAAIVNALDSLDRAELAKNLNLFAKGFGYTSKAFDVYDLVEEVKKSYASGDWNNTALKVETLFAGSAATGLIAFAFGVTVSTPVGIVAFALIMALVSAYIDDAHVKQFNDALDAILP
modifications: S5-Pflu373
B2: S5-Pflu618: chimeric bacteriocin SEQ ID NO: 21: pyocin S5 first segment fused to P. fluorescens Pflu618 killing domain (protein)
chain: MSNDNEVPGSMVIVAQGPDDQYAYEVPPIDSAAVAGNMFGDLIQREIYLQKNIYYPVRSIFEQGTKEKKEINKKVSDQVDGLLKQITQGKREATRQERVDVMSAVLHKMESDLEGYKKTFTKGPFIDYEKQSSLSIYEAWVKIWEKNSWEERKKYPFQQLVRDELERAVAYYKQDSLSEAVKVLRQELNKQKALKEKEDLSQLERDYRTRKANLEMKVQSELDQAGSALPPLVSPTPEQWLERATRLVTQAIADKKQLQTTNNTLIKNSPTPLEKQKAIYNGELLVDEIASLQARLVKLNAETTRRRTEAEAEAKRIDDYKRAVAFVADANKYILEKYGANLHQVVMDLQKDISGKKIRSYAEAMQTFEAVRTNPNARLSPQDTRAVVDALNALDKATYMDSVNKLAKGFGVTGKIVQAHSVIEKTVIGFRDGNWKPLILELESIALGAGAGAAVATLLAVFSPGFAASAIGIVAVGVAIATIASLLNADNVEKINVFISDHLETALKEQR
modifications: S5-Pflu618

Tests used:
Assay type in all cases: cell-based
P. aeruginosa BI80 = experiment: agar disc-diffusion assay; settings: strain BI80; 0.3, 3 and 30 μg of protein spotted on discs on CAA agar lawn, overnight
Procedure: (§1) Overnight P. aeruginosa cultures grown in CAA medium were equalized till OD595=1.0 in CAA and diluted 100×. Sterile cotton swab was briefly submerged in diluted microbial suspension, removing the excess of liquid by pressing it against the container wall. The swab was used for evenly streaking bacteria on plates containing growth medium with CAA solid agar (1.5%). 6 mm diameter sterile Whatman discs were placed on soft-agar and 0.3-30 μg of chimeric pyocins were spotted to paper disks. The plates were incubated overnight at 37° C. and bacteriocin inhibition zones were observed.
(§2) Next, all 25 P. aeruginosa strains were subjected to agar disc-diffusion assay by spotting different amounts of purified pyocin S5 (0.3 μg, 3 μg and 30 μg) on bacteria lawns. Six P. aeruginosa strains were resistant to pyocin S5. Four of these six strains were pyocin S5 and immunity protein-encoding strains—PA14, PAO1, […] and NCTC 13921. Two cystic fibrosis isolates, 12-35708 and 12-29165 were also completely resistant to pyocin S5, despite the absence of S5, or S5 immunity protein coding genes. […] Turbid inhibition zones were detected when 3 μg and 30 μg of S5 were spotted on the lawn of these strains (Table 1, FIG. 3).

P. aeruginosa 13-18499 = experiment: agar disc-diffusion assay; settings: strain 13-18499; 0.3, 3 and 30 μg of protein spotted on discs on CAA agar lawn, overnight
Procedure: as §1, §2

P. aeruginosa BR79 = experiment: agar disc-diffusion assay; settings: strain BR79; 0.3, 3 and 30 μg of protein spotted on discs on CAA agar lawn, overnight
Procedure: as §1, §2

P. aeruginosa Bu002 = experiment: agar disc-diffusion assay; settings: strain Bu002; 0.3, 3 and 30 μg of protein spotted on discs on CAA agar lawn, overnight
Procedure: as §1, §2

P. aeruginosa HP1 = experiment: agar disc-diffusion assay; settings: strain HP1; 0.3, 3 and 30 μg of protein spotted on discs on CAA agar lawn, overnight
Procedure: as §1, §2

P. aeruginosa HP41 = experiment: agar disc-diffusion assay; settings: strain HP41; 0.3, 3 and 30 μg of protein spotted on discs on CAA agar lawn, overnight
Procedure: as §1, §2

P. aeruginosa PA14 = experiment: agar disc-diffusion assay; settings: strain PA14; 0.3, 3 and 30 μg of protein spotted on discs on CAA agar lawn, overnight
Procedure: as §1, §2

P. aeruginosa HP52 = experiment: agar disc-diffusion assay; settings: strain HP52; 0.3, 3 and 30 μg of protein spotted on discs on CAA agar lawn, overnight
Procedure: as §1, §2

P. aeruginosa HP75 = experiment: agar disc-diffusion assay; settings: strain HP75; 0.3, 3 and 30 μg of protein spotted on discs on CAA agar lawn, overnight
Procedure: as §1, §2

[1] = tested on: P. aeruginosa Boston 41501 (ATCC 27853); experiment: agar disc-diffusion assay; settings: strain Boston; 0.3, 3 and 30 μg of protein spotted on discs on CAA agar lawn, overnight
Procedure: as §1, §2

P. aeruginosa HP40 = experiment: agar disc-diffusion assay; settings: strain HP40; 0.3, 3 and 30 μg of protein spotted on discs on CAA agar lawn, overnight
Procedure: as §1, §2

P. aeruginosa HP6 = experiment: agar disc-diffusion assay; settings: strain HP6; 0.3, 3 and 30 μg of protein spotted on discs on CAA agar lawn, overnight
Procedure: as §1, §2

P. aeruginosa PAO1 = experiment: agar disc-diffusion assay; settings: strain PAO1; 0.3, 3 and 30 μg of protein spotted on discs on CAA agar lawn, overnight
Procedure: as §1, §2

P. aeruginosa EY76 = experiment: agar disc-diffusion assay; settings: strain EY76; 0.3, 3 and 30 μg of protein spotted on discs on CAA agar lawn, overnight
Procedure: as §1, §2

P. aeruginosa HP7 = experiment: agar disc-diffusion assay; settings: strain HP7; 0.3, 3 and 30 μg of protein spotted on discs on CAA agar lawn, overnight
Procedure: as §1, §2

P. aeruginosa BL77 = experiment: agar disc-diffusion assay; settings: strain BL77; 0.3, 3 and 30 μg of protein spotted on discs on CAA agar lawn, overnight
Procedure: as §1, §2

P. aeruginosa A19 = experiment: agar disc-diffusion assay; settings: strain A19; 0.3, 3 and 30 μg of protein spotted on discs on CAA agar lawn, overnight
Procedure: as §1, §2

P. aeruginosa ATCC 29260 = experiment: agar disc-diffusion assay; settings: strain ATCC 29260; 0.3, 3 and 30 μg of protein spotted on discs on CAA agar lawn, overnight
Procedure: as §1, §2

P. aeruginosa NCTC 13921 = experiment: agar disc-diffusion assay; settings: strain NCTC 13921; 0.3, 3 and 30 μg of protein spotted on discs on CAA agar lawn, overnight
Procedure: as §1, §2

P. aeruginosa UR78 = experiment: agar disc-diffusion assay; settings: strain UR78; 0.3, 3 and 30 μg of protein spotted on discs on CAA agar lawn, overnight
Procedure: as §1, §2

P. aeruginosa Pr335 = experiment: agar disc-diffusion assay; settings: strain Pr335; 0.3, 3 and 30 μg of protein spotted on discs on CAA agar lawn, overnight
Procedure: as §1, §2

P. aeruginosa NCTC 13437 = experiment: agar disc-diffusion assay; settings: strain NCTC 13437; 0.3, 3 and 30 μg of protein spotted on discs on CAA agar lawn, overnight
Procedure: as §1, §2

P. aeruginosa strains = experiment: agar disc-diffusion assay, panel of 25 strains; settings: panel of 25 P. aeruginosa strains, in words
Procedure: as §1, §2

| Molecule | Activity in agar disc-diffusion assay (P. aeruginosa BI80) | Activity in agar disc-diffusion assay (P. aeruginosa 13-18499) | Activity in agar disc-diffusion assay (P. aeruginosa Bu002) | Activity in agar disc-diffusion assay (P. aeruginosa HP1) | Activity in agar disc-diffusion assay (P. aeruginosa HP41) | Activity in agar disc-diffusion assay (P. aeruginosa HP52) | Activity in agar disc-diffusion assay [1] | Activity in agar disc-diffusion assay (P. aeruginosa HP40) | Activity in agar disc-diffusion assay (P. aeruginosa HP6) | Activity in agar disc-diffusion assay (P. aeruginosa PAO1) | Activity in agar disc-diffusion assay (P. aeruginosa HP7) | Activity in agar disc-diffusion assay (P. aeruginosa BL77) | Activity in agar disc-diffusion assay (P. aeruginosa A19) | Activity in agar disc-diffusion assay (P. aeruginosa ATCC 29260) | Activity in agar disc-diffusion assay (P. aeruginosa NCTC 13921) | Activity in agar disc-diffusion assay (P. aeruginosa UR78) | Activity in agar disc-diffusion assay (P. aeruginosa Pr335) | activity spectrum / profile in agar disc diffusion assay (P. aeruginosa strains) | other results |
| --- | --- | --- | --- | --- | --- | --- | --- | --- | --- | --- | --- | --- | --- | --- | --- | --- | --- | --- | --- |
| B1 | *** (activity detected with 0.3 μg of protein) | ** (activity detected with 3 μg of protein) | *** (activity detected with 0.3 μg of protein) | *** (activity detected with 0.3 μg of protein) | *** (activity detected with 0.3 μg of protein) | ** (activity detected with 3 μg of protein) | *** (activity detected with 0.3 μg of protein) | *** (activity detected with 0.3 μg of protein) | *** (activity detected with 0.3 μg of protein) | *** (activity detected with 0.3 μg of protein) | *** (activity detected with 0.3 μg of protein) | ** (activity detected with 3 μg of protein) | *** (activity detected with 0.3 μg of protein) | *** (activity detected with 0.3 μg of protein) | ** (activity detected with 3 μg of protein) | *** (activity detected with 0.3 μg of protein) | *** (activity detected with 0.3 μg of protein) | good activity profile, similar to S5-Pflu095 | Activity in agar disc-diffusion assay (P. aeruginosa BR79): ** (activity detected with 3 μg of protein); Activity in agar disc-diffusion assay (P. aeruginosa PA14): ** (activity detected with 3 μg of protein); Activity in agar disc-diffusion assay (P. aeruginosa HP75): ** (activity detected with 3 μg of protein); Activity in agar disc-diffusion assay (P. aeruginosa EY76): *** (activity detected with 0.3 μg of protein); Activity in agar disc-diffusion assay (P. aeruginosa NCTC 13437): * (activity detected only with 30 μg of protein) |
| B2 | * (activity detected only with 30 μg of protein) | * (activity detected only with 30 μg of protein) | ** (activity detected with 3 μg of protein) | ** (activity detected with 3 μg of protein) | ** (activity detected with 3 μg of protein) | * (activity detected only with 30 μg of protein) | ** (activity detected with 3 μg of protein) | ** (activity detected with 3 μg of protein) | * (activity detected only with 30 μg of protein) | ** (activity detected with 3 μg of protein) | ** (activity detected with 3 μg of protein) | * (activity detected only with 30 μg of protein) | *** (activity detected with 0.3 μg of protein) | * (activity detected only with 30 μg of protein) | * (activity detected only with 30 μg of protein) | * (activity detected only with 30 μg of protein) | ** (activity detected with 3 μg of protein) | weaker and less broad activity in comparison to pyocin S5 | – |

Source: patent US20250188133A1, “CHIMERIC BACTERIOCINS AND METHOD FOR THE CONTROL OF PSEUDOMONAS” (priority 2022, published 2025)
